Results published in patent publication US6641809.

What was measured:
CD28 receptor (human) [1] = target: CD28 receptor (human) (UniProt P10747); assay: cell-based or functional assay
CD28 receptor (human) [2] = target: CD28 receptor (human) (UniProt P10747); assay: adhesion of B7-transfected COS cells to CD28+ CHO cells, EDTA omitted
CD28 receptor (human) [3] = target: CD28 receptor (human) (UniProt P10747); assay: adhesion of T51 cells to CD28+ CHO cells, mAb 9.3 at 10 µg/ml plus EDTA
CD28 receptor (human) [4] = target: CD28 receptor (human) (UniProt P10747); assay: inhibition of adhesion of PM lymphoblastoid cells to CD28+ CHO monolayers
CD28 receptor (human) [5] = target: CD28 receptor (human) (UniProt P10747); assay: adhesion of T51 cells to CD28+ CHO cells, mAb 9.3 at 10 µg/ml without EDTA
B7 antigen (human) [6] = target: B7 antigen (human) (UniProt P33681); assay: cell-based or functional assay
B7 antigen (human) [7] = target: B7 antigen (human) (UniProt P33681); assay: flow cytometry, 5E1 cells; (- cold) minus (+ cold)
B7 antigen (human) [8] = target: B7 antigen (human) (UniProt P33681); assay: flow cytometry, T51 cells; (- cold) minus (+ cold)
B7 antigen (human) [9] = target: B7 antigen (human) (UniProt P33681); assay: flow cytometry, Raji cells; (- cold) minus (+ cold)
B7 antigen (human) [10] = target: B7 antigen (human) (UniProt P33681); assay: flow cytometry, Daudi cells; (- cold) minus (+ cold)
B7 antigen (human) [11] = target: B7 antigen (human) (UniProt P33681); assay: flow cytometry, Jijoye cells; (- cold) minus (+ cold)
B7 antigen (human) [12] = target: B7 antigen (human) (UniProt P33681); assay: flow cytometry, 1A2 cells preincubated with unlabeled BB-1
B7 antigen (human) [13] = target: B7 antigen (human) (UniProt P33681); assay: flow cytometry, 5E1 cells preincubated with unlabeled BB-1
B7 antigen (human) [14] = target: B7 antigen (human) (UniProt P33681); assay: flow cytometry, CEM cells preincubated with unlabeled BB-1
B7 antigen (human) [15] = target: B7 antigen (human) (UniProt P33681); assay: flow cytometry, T51 cells preincubated with unlabeled BB-1
B7 antigen (human) [16] = target: B7 antigen (human) (UniProt P33681); assay: flow cytometry, HL60 cells preincubated with unlabeled BB-1
B7 antigen (human) [17] = target: B7 antigen (human) (UniProt P33681); assay: flow cytometry, HSB2 cells preincubated with unlabeled BB-1
B7 antigen (human) [18] = target: B7 antigen (human) (UniProt P33681); assay: flow cytometry, Raji cells preincubated with unlabeled BB-1
B7 antigen (human) [19] = target: B7 antigen (human) (UniProt P33681); assay: flow cytometry, Daudi cells preincubated with unlabeled BB-1
B7 antigen (human) [20] = target: B7 antigen (human) (UniProt P33681); assay: flow cytometry, THP-1 cells preincubated with unlabeled BB-1
B7 antigen (human) [21] = target: B7 antigen (human) (UniProt P33681); assay: flow cytometry, Jijoye cells preincubated with unlabeled BB-1
B7 antigen (human) [22] = target: B7 antigen (human) (UniProt P33681); assay: adhesion of T51 cells to CD28+ CHO cells, screen of a mAb panel
B7 antigen (human) [23] = target: B7 antigen (human) (UniProt P33681); assay: flow cytometry, direct staining of Raji cells (BL, positive for CD28 adhesion)
B7 antigen (human) [24] = target: B7 antigen (human) (UniProt P33681); assay: adhesion of Jijoye cells to CD28+ CHO cells in 10 mM EDTA, BB-1 below 1 µg/ml
B7 antigen (human) [25] = target: B7 antigen (human) (UniProt P33681); assay: flow cytometry, direct staining of Daudi cells (BL, positive for CD28 adhesion)
B7 antigen (human) [26] = target: B7 antigen (human) (UniProt P33681); assay: flow cytometry, direct staining of 5E1 cells (B-LCL, positive for CD28 adhesion)
B7 antigen (human) [27] = target: B7 antigen (human) (UniProt P33681); assay: flow cytometry, direct staining of Jijoye cells (BL, positive for CD28 adhesion)
B7 antigen (human) [28] = target: B7 antigen (human) (UniProt P33681); assay: flow cytometry, direct staining of T51 cells (B-LCL, positive for CD28 adhesion)
B7 antigen (human) [29] = target: B7 antigen (human) (UniProt P33681); assay: flow cytometry, Namalwa cells (negative for CD28 adhesion); (- cold) minus (+ cold)
B7 antigen (human) [30] = target: B7 antigen (human) (UniProt P33681); assay: flow cytometry, direct staining of HL60 cells (AML, negative for CD28 adhesion; presence of B7 not shown)
B7 antigen (human) [31] = target: B7 antigen (human) (UniProt P33681); assay: flow cytometry, direct staining of 1A2 cells (B-LCL, negative for CD28 adhesion; presence of B7 not shown)
B7 antigen (human) [32] = target: B7 antigen (human) (UniProt P33681); assay: flow cytometry, direct staining of THP-1 cells (AML, negative for CD28 adhesion; presence of B7 not shown)
B7 antigen (human) [33] = target: B7 antigen (human) (UniProt P33681); assay: flow cytometry, direct staining of HSB2 cells (T-ALL, negative for CD28 adhesion; presence of B7 not shown)
B7 antigen (human) [34] = target: B7 antigen (human) (UniProt P33681); assay: flow cytometry, direct staining of Namalwa cells (BL, negative for CD28 adhesion; presence of B7 not shown)

Sequence of B7 antigen (human) (P33681 35-288): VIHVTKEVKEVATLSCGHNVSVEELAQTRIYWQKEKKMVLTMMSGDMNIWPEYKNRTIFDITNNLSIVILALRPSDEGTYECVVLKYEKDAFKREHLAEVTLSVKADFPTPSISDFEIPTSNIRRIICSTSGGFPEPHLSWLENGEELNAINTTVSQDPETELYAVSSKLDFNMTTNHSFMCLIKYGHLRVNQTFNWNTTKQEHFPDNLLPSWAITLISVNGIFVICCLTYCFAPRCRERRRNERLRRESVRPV

Q: For “B7Ig fusion protein (from UniProt P33681 35-215; P01857 99-330) (Fc fusion)”, which [3H]-T incorporation, PBL, + Anti-CD3, B7Ig (immob.), Exp. 1 (CD28 receptor (human) [1]) is on record?
A: 174000 cpm

Q: What about the [3H]-T incorporation, PBL, - Anti-CD3, B7Ig (immob.), Exp. 1 (CD28 receptor (human) [1]) of the same substance?
A: 100 cpm

Q: “Monoclonal antibody (mAb) 9.3 (anti-CD28)” was tested. Which [3H]-T incorporation, PBL, + Anti-CD3, mAb 9.3 (immob.), Exp. 1 (CD28 receptor (human) [1]) did it give?
A: 137000 cpm

Q: And the [3H]-T incorporation, PBL, + Anti-CD3, mAb 9.3 (soln.), Exp. 1 (CD28 receptor (human) [1])?
A: 156000 cpm

Q: What about the [3H]-T incorporation, PBL, + Anti-CD3, mAb 9.3 (soln.), Exp. 2 (CD28 receptor (human) [1]) of the same substance?
A: 75800 cpm

Q: What about the [3H]-T incorporation, PBL, - Anti-CD3, mAb 9.3 (immob.), Exp. 1 (CD28 receptor (human) [1]) of the same substance?
A: 100 cpm

Q: And the [3H]-T incorporation, PBL, - Anti-CD3, mAb 9.3 (soln.), Exp. 1 (CD28 receptor (human) [1])?
A: 300 cpm

Q: And the [3H]-T incorporation, PBL, - Anti-CD3, mAb 9.3 (soln.), Exp. 2 (CD28 receptor (human) [1])?
A: 400 cpm

Q: And the percent of adhesion blocked (CD28 receptor (human) [2])?
A: 40%

Q: And the percent reduction of adhesion (CD28 receptor (human) [3])?
A: 93%

Q: And the IC50 (CD28 receptor (human) [4])?
A: 10 nM

Q: And the percent reduction of adhesion (CD28 receptor (human) [5])?
A: 62%

Q: For mAb 9.3 (Fab fragments), which [3H]-T incorporation, PHA blasts stimulated with B7+ CHO (40:1), with 9.3 Fab at 10 µg/ml (CD28 receptor (human) [1]) is on record?
A: 132000 cpm

Q: With mAb BB-1 (anti-B7) (antibody) as the substance, how does the [3H]-T incorporation, PHA blasts stimulated with B7+ CHO (40:1), with BB-1 at 10 µg/ml (B7 antigen (human) [6]) read?
A: 98300 cpm

Q: And the SPECIFIC BINDING (mean fluorescence, linear units) (B7 antigen (human) [7])?
A: 10.6 linear units

Q: What about the SPECIFIC BINDING (mean fluorescence, linear units) (B7 antigen (human) [8]) of the same substance?
A: 13.4 linear units

Q: What about the SPECIFIC BINDING (mean fluorescence, linear units) (B7 antigen (human) [9]) of the same substance?
A: 4.3 linear units

Q: What about the SPECIFIC BINDING (mean fluorescence, linear units) (B7 antigen (human) [10]) of the same substance?
A: 3.6 linear units

Q: And the SPECIFIC BINDING (mean fluorescence, linear units) (B7 antigen (human) [11])?
A: 15 linear units

Q: What about the mean fluorescence (linear units), + COLD (B7 antigen (human) [12]) of the same substance?
A: 4.3 linear units

Q: What about the mean fluorescence (linear units), + COLD (B7 antigen (human) [13]) of the same substance?
A: 2.4 linear units

Q: And the mean fluorescence (linear units), + COLD (B7 antigen (human) [14])?
A: 1.9 linear units

Q: What about the mean fluorescence (linear units), + COLD (B7 antigen (human) [15]) of the same substance?
A: 3 linear units

Q: And the mean fluorescence (linear units), + COLD (B7 antigen (human) [16])?
A: 3.1 linear units

Q: And the mean fluorescence (linear units), + COLD (B7 antigen (human) [17])?
A: 2.3 linear units

Q: And the mean fluorescence (linear units), + COLD (B7 antigen (human) [18])?
A: 2.8 linear units

Q: What about the mean fluorescence (linear units), + COLD (B7 antigen (human) [19]) of the same substance?
A: 2.8 linear units

Q: And the mean fluorescence (linear units), + COLD (B7 antigen (human) [20])?
A: 3 linear units

Q: What about the mean fluorescence (linear units), + COLD (B7 antigen (human) [21]) of the same substance?
A: 2.8 linear units

Q: And the percent of CD28-mediated adhesion blocked (B7 antigen (human) [22])?
A: > 30%

Q: What about the mean fluorescence (linear units), - COLD (B7 antigen (human) [23]) of the same substance?
A: 7.1 linear units

Q: What about the percent of adhesion blocked (B7 antigen (human) [24]) of the same substance?
A: 60%

Q: And the mean fluorescence (linear units), - COLD (B7 antigen (human) [25])?
A: 6.4 linear units

Q: And the mean fluorescence (linear units), - COLD (B7 antigen (human) [26])?
A: 13 linear units

Q: And the mean fluorescence (linear units), - COLD (B7 antigen (human) [27])?
A: 17.8 linear units

Q: And the mean fluorescence (linear units), - COLD (B7 antigen (human) [28])?
A: 16.4 linear units

Q: What about the SPECIFIC BINDING (mean fluorescence, linear units) (B7 antigen (human) [29]) of the same substance?
A: 1.6 linear units

Q: What about the mean fluorescence (linear units), - COLD (B7 antigen (human) [30]) of the same substance?
A: 3.1 linear units

Q: What about the mean fluorescence (linear units), - COLD (B7 antigen (human) [31]) of the same substance?
A: 4.5 linear units

Q: And the mean fluorescence (linear units), - COLD (B7 antigen (human) [32])?
A: 3.1 linear units

Q: And the mean fluorescence (linear units), - COLD (B7 antigen (human) [33])?
A: 2.3 linear units

Q: And the mean fluorescence (linear units), - COLD (B7 antigen (human) [34])?
A: 3.8 linear units
